Experimental findings from US20220409694A1, “POLYPEPTIDE, AND PREPARATION METHOD THEREFOR AND USE THEREOF” (SHANXI JINBO BIO-PHARMACEUTICAL CO., LTD., priority 2020, published 2022) are described below.

Holding throughout (experiment): cell-based or functional assay
Assay [1] deals with Rs3367-CoV S protein (pcDNA3.1-Rs3367-CoV-S, on pseudovirus) (Rs3367-CoV (SARS-like virus from bats)).
For assay [2], the target named is SARS-CoV S protein (pcDNA3.1-SARS-CoV-S, on pseudovirus) (SARS-CoV), P59594.
Assay [3] has as its target WIV1-CoV S protein (pcDNA3.1-WIV1-CoV-S, on pseudovirus) (WIV1-CoV (SARS-like virus from bats)).

As for SLDQINVTFLDLEYEMKKLEEAIKKLEESYIDLKEL (modifications not checked) [EK1], the Inhibitory Activity, IC50 (pseudovirus infection of HuH7, luciferase) in assay [1] was determined as 4000 nM; in assay [2], 1890 nM; in assay [3], 2940 nM.
